According to patent US20250304650A1:
Where a chain is given by its changes, count along the chain named. Names and notes keep the numbering of the source. Values joined by “and” are separate entries in the source; they are usually repeats but may differ in a detail not shown here. Equal entries are not always repeated. One block for each binder: values may come before it.

Legend:
[1] = biological target: feline FcRn (IgG receptor FcRn large subunit p51 with feline beta-2-microglobulin) (feline); test: SPR Biacore 8K, Fc captured by SASA tag on BSA, pH 6.0
[2] = biological target: feline FcRn (FCN-F82W3, Acrobiosystems) (feline); test: SPR Carterra, IgG coupled, pH 6.0
[3] = biological target: feline FcRn (FCN-F82W3, Acrobiosystems) (feline); test: SPR Carterra, IgG coupled, pH 7.4
[4] = biological target: feline FcRn (IgG receptor FcRn large subunit p51 with feline beta-2-microglobulin) (feline); test: SPR Biacore 8K+, IgG on C1 chip, pH 5.9, 1:1 kinetic fit

B1: feline IgG1a Fc variant S252W (CH2-CH3) with SASA tag (Fc fusion, part only; not given: SASA tag, not shown: another chain or arm of the molecule; small tags and cut ends)
Fc: PPEMLGGPSIFIFPPKPKDTLWISRTPEVTCLVVDLGPDDSDVQITWFVDNTQVYTAKTSPREEQFNSTYRVVSVLPILHQDWLKGKEFKCKVNSKSLPSPIERTISKAKGQPHEPQVYVLPPAQEELSRNKVSVTCLIKSFHPPDIAVEWEITGQPEPENNYRTTPPQLDSDGTYFVYSKLSVDRSHWQRGNTYTCSVSHEALHSHHTQKSLTQSPGK
Kd [1]: 23.5 nM and 23.3 nM
koff [1]: 0.00538 s⁻¹ and 0.00545 s⁻¹
kon [1]: 228000 M⁻¹ s⁻¹ and 234000 M⁻¹ s⁻¹

B7: anti-NGF feline IgG1a, Fc variant S252Y, Q311K (antibody, part only; not given: anti-NGF variable domains, light chain, not shown: another chain or arm of the molecule; small tags and cut ends)
Fc: B1 Fc with W22Y, Q81K
Kd [2]: 5.6 nM
koff [2]: 0.00779 s⁻¹
kon [2]: 1.39e+06 M⁻¹ s⁻¹
Kd [3]: 46.9 nM
koff [3]: 0.112 s⁻¹
kon [3]: 2.39e+06 M⁻¹ s⁻¹

B8: anti-NGF feline IgG1a, Fc variant Q347L (antibody, part only; not given: Anti-NGF variable domains, not shown: another chain or arm of the molecule; small tags and cut ends)
Fc: B1 Fc with W22S, Q117L
Kd [2]: 157 nM
koff [2]: 0.0853 s⁻¹
kon [2]: 544000 M⁻¹ s⁻¹

B11: anti-NGF feline IgG1a, Fc variant S428H, T289H (antibody, part only; not given: anti-NGF variable domains, light chain, not shown: another chain or arm of the molecule; small tags and cut ends)
Fc: B1 Fc with W22S, T59H, S200H
Kd [2]: 149 nM
koff [2]: 0.0526 s⁻¹
kon [2]: 352000 M⁻¹ s⁻¹

B12: anti-NGF feline IgG1a, Fc variant S428Y, Q311V, E380T (antibody, part only; not given: anti-NGF variable domains, not shown: another chain or arm of the molecule; small tags and cut ends)
Fc: B1 Fc with W22S, Q81V, E150T, S200Y
Kd [4]: 20.1 nM

B13: anti-NGF feline IgG1a, Fc variant N389c-R (antibody, part only; not given: anti-NGF variable domains, not shown: another chain or arm of the molecule; small tags and cut ends)
Fc: B1 Fc with W22S, N161R
Kd [2]: 188 nM
koff [2]: 0.0944 s⁻¹
kon [2]: 502000 M⁻¹ s⁻¹

B14: anti-NGF feline IgG1a, Fc variant S426L, S428H (antibody, part only; not given: anti-NGF variable domains, light chain, not shown: another chain or arm of the molecule; small tags and cut ends)
Fc: B1 Fc with W22S, S198L, S200H
Kd [2]: 100 nM
koff [2]: 0.0445 s⁻¹
kon [2]: 445000 M⁻¹ s⁻¹

B15: anti-NGF feline IgG1a, Fc variant S252Y, Q311L (antibody, part only; not given: anti-NGF variable domains, not shown: another chain or arm of the molecule; small tags and cut ends)
Fc: B1 Fc with W22Y, Q81L
Kd [2]: 7 nM
koff [2]: 0.00516 s⁻¹
kon [2]: 740000 M⁻¹ s⁻¹

B17: anti-NGF feline IgG1a, Fc variant Q311L (antibody, part only; not given: anti-NGF variable domains, light chain, not shown: another chain or arm of the molecule; small tags and cut ends)
Fc: B1 Fc with W22S, Q81L
Kd [2]: 88.2 nM
koff [2]: 0.0499 s⁻¹
kon [2]: 565000 M⁻¹ s⁻¹

B19: anti-NGF feline IgG1a, Fc variant S252Y, Q311R (antibody, part only; not given: anti-NGF variable domains, not shown: another chain or arm of the molecule; small tags and cut ends)
Fc: B1 Fc with W22Y, Q81R
Kd [2]: 6.9 nM
koff [2]: 0.0064 s⁻¹
kon [2]: 926000 M⁻¹ s⁻¹

Now from value to binder:

Kd [1]: 316 nM and 444 nM
koff [1]: 0.0761 s⁻¹ and 0.0888 s⁻¹
kon [1]: 241000 M⁻¹ s⁻¹ and 200000 M⁻¹ s⁻¹
B2: feline IgG1a Fc variant S434H (CH2-CH3) with SASA tag (Fc fusion, part only; not given: SASA tag, not shown: another chain or arm of the molecule; small tags and cut ends)
Fc: B1 Fc with W22S, S206H

Kd [2]: 3 nM
koff [2]: 0.0044 s⁻¹
kon [2]: 1.48e+06 M⁻¹ s⁻¹
Kd [3]: 185 nM
koff [3]: 0.118 s⁻¹
kon [3]: 636000 M⁻¹ s⁻¹
B3: anti-NGF feline IgG1a, Fc variant S434Y, S426L (antibody, part only; not given: anti-NGF variable domains, light chain, not shown: another chain or arm of the molecule; small tags and cut ends)
Fc: B1 Fc with W22S, S198L, S206Y

Kd [4]: 4.01 nM
B4: anti-NGF feline IgG1a, Fc variant S252W (antibody, part only; not given: anti-NGF variable domains, light chain, not shown: another chain or arm of the molecule; small tags and cut ends)
Fc: B1 Fc

Kd [1]: 55.6 nM and 50.2 nM
koff [1]: 0.0175 s⁻¹ and 0.0202 s⁻¹
kon [1]: 314000 M⁻¹ s⁻¹ and 402000 M⁻¹ s⁻¹
B5: feline IgG1a Fc variant S434W (CH2-CH3) with SASA tag (Fc fusion, part only; not given: SASA tag, not shown: another chain or arm of the molecule; small tags and cut ends)
Fc: B1 Fc with W22S, S206W

Kd [2]: 48.1 nM
koff [2]: 0.0265 s⁻¹
kon [2]: 552000 M⁻¹ s⁻¹
B6: anti-NGF feline IgG1a, Fc variant S428Y, S254R (antibody, part only; not given: Anti-NGF variable domains, not shown: another chain or arm of the molecule; small tags and cut ends)
Fc: B1 Fc with W22S, S24R, S200Y

Kd [2]: 3.8 nM
koff [2]: 0.00405 s⁻¹
kon [2]: 1.06e+06 M⁻¹ s⁻¹
Kd [3]: 306 nM
koff [3]: 0.0528 s⁻¹
kon [3]: 173000 M⁻¹ s⁻¹
B9: anti-NGF feline IgG1a, Fc variant S252Y, Q311V (antibody, part only; not given: anti-NGF variable domains, light chain, not shown: another chain or arm of the molecule; small tags and cut ends)
Fc: B1 Fc with W22Y, Q81V

Kd [2]: 171 nM
koff [2]: 0.0602 s⁻¹
kon [2]: 352000 M⁻¹ s⁻¹
B10: anti-NGF feline IgG1a, Fc variant S426H (antibody, part only; not given: anti-NGF variable domains, not shown: another chain or arm of the molecule; small tags and cut ends)
Fc: B1 Fc with W22S, S198H

Kd [2]: 25.6 nM
koff [2]: 0.0184 s⁻¹
kon [2]: 718000 M⁻¹ s⁻¹
Kd [4]: 71.8 nM
B16: anti-NGF feline IgG1a, Fc variant S428Y (antibody, part only; not given: anti-NGF variable domains, not shown: another chain or arm of the molecule; small tags and cut ends)
Fc: B1 Fc with W22S, S200Y

Kd [2]: 127 nM
koff [2]: 0.045 s⁻¹
kon [2]: 353000 M⁻¹ s⁻¹
B18: anti-NGF feline IgG1a, Fc variant L309V (antibody, part only; not given: anti-NGF variable domains, light chain, not shown: another chain or arm of the molecule; small tags and cut ends)
Fc: B1 Fc with W22S, L79V

Kd [2]: 159 nM
koff [2]: 0.0618 s⁻¹
kon [2]: 389000 M⁻¹ s⁻¹
B20: anti-NGF feline IgG1a, Fc variant S428H (antibody, part only; not given: anti-NGF variable domains, light chain, not shown: another chain or arm of the molecule; small tags and cut ends)
Fc: B1 Fc with W22S, S200H

Kd [4]: 20.6 nM
B21: anti-NGF feline IgG1a, Fc variant S428Y, L309V, E380T (antibody, part only; not given: anti-NGF variable domains, light chain, not shown: another chain or arm of the molecule; small tags and cut ends)
Fc: B1 Fc with W22S, L79V, E150T, S200Y

Kd [1]: 1190 nM and 1640 nM
koff [1]: 0.374 s⁻¹ and 0.195 s⁻¹
kon [1]: 314000 M⁻¹ s⁻¹ and 119000 M⁻¹ s⁻¹
B22: wild-type feline IgG1a Fc (CH2 and CH3 domains) with SASA tag (Fc fusion, part only; not given: SASA tag, not shown: another chain or arm of the molecule; small tags and cut ends)
Fc: B1 Fc with W22S
